Results from patent US20190218613A1, “METHODS OF DETECTING THE FORMATION OF CELLULAR CLUSTERS OF RNA” (The Regents of the University of California, priority 2017, published 2019).

B1: RNase A: ribonuclease enzyme (protein, UniProt P61823 27-150, looked up)
Ribonuclease pancreatic: KETAAAKFERQHMDSSTSAASSSNYCNQMMKSRNLTKDRCKPVNTFVHESLADVQAVCSQKNVACKNGQTNCYQSYSTMSITDCRETGSSKYPNCAYKTTQANKHIIVACEGNPYVPVHFDASV
B2: proteinase K: protease enzyme (protein, UniProt P06873 106-384, looked up)
Proteinase K: AAQTNAPWGLARISSTSPGTSTYYYDESAGQGSCVYVIDTGIEASHPEFEGRAQMVKTYYYSSRDGNGHGTHCAGTVGSRTYGVAKKTQLFGVKVLDDNGSGQYSTIIAGMDFVASDKNNRNCPKGVVASLSLGGGYSSSVNSAAARLQSSGVMVAVAAGNNNADARNYSPASEPSVCTVGASDRYDRRSSFSNYGSVLDIFGPGTSILSTWIGGSTRSISGTSMATPHVAGLAAYLMTLGKTTAASACRYIADTANKGDLSNIPFGTVNLLAYNNYQA

System: 47× CAG RNA
Assay: In vitro RNA phase separation/gelation assay (fluorescence micrographs, index of dispersion)
Format: biochemical
Settings: proteinase K 60 U/mL, DNase I 200 U/mL, RNaseA 0.7 U/mL; 10 minutes, room temperature
Method: For phase separation/gelation assays, RNAs were diluted to concentrations of 0.5 ng/μL to 0.5 μg/μL in 10 mM Tris pH 7.0, 10 mM MgCl2, 25 mM NaCl buffer, unless indicated otherwise. Nuclease-free buffer stocks were purchased from Ambion. RNA was denatured at 95° C. for 3 minutes and cooled down at 1-4° C. per minute to 37° C. final temperature in a thermocycler and imaged immediately. Samples were visualized using a custom spinning disk confocal microscope (Nikon Ti-Eclipse equipped with a Yokogawa CSU-X spinning disk module) using a×100, 1.49 numerical aperture oil immersion objective and an air-cooled EM-CCD (electron multiplying charge-coupled device). The extent of phase separation/gelation was quantified by the index of dispersion (σ^2/μ) of fluorescence intensity per pixel (pixel size 83 nm×83 nm). Briefly, variance in the fluorescence intensity per image was determined, and normalized to the mean fluorescence intensity in the solution phase of the RNA. For dilute solution (<10% of imaging area occupied with clusters), this parameter reports the extent of inhomogeneity in the sample. At least 20 independent imaging areas (about 1,800 μm^2 each) were analyzed for each condition to achieve a representative measure across the sample. Each datum point in the bar graphs represents one imaging area. […]

Row | dissolution of 47× CAG RNA clusters by enzyme treatment | Molecule
1 | dissolved | B1
2 | not | B2
